In patent publication US20130164299A1 (CENTRE NATIONAL DE LA RECHERCHE SCIENTIFIQUE, published 2013):

T1: CLEC2A-Fc protein (UniProt Q6UVW9 49-174)
T1 construct: Negative control coat in the ELISA; not shown: Fc portion recognised by anti-human Ig
T1 sequence (looked up): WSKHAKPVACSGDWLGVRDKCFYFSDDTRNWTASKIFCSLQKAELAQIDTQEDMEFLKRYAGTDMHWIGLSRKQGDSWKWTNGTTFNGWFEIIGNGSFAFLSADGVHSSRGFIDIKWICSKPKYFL

T2: AICL, expressed on transfected 293T cells (UniProt Q92478 1-149, limits assumed)
T2 construct: whole, on cells; also called AICL-transfectants
T2 sequence (looked up): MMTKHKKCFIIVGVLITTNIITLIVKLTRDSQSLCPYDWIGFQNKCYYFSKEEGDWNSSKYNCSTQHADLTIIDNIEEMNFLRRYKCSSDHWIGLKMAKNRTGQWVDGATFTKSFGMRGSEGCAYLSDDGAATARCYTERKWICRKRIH

T3: LLT1-Fc fusion protein (human, UniProt Q9UHP7 60-191, limits assumed)
T3 construct: also called LLT1-hFc; LLT-Fc; not shown: human Fc (hFc)
T3 sequence: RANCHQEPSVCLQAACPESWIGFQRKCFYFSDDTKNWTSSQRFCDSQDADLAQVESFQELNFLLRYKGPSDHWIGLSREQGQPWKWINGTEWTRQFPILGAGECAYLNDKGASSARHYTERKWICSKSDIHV

T4: lectin-like transcript 1 (LLT1), recombinantly expressed on cells (human, UniProt Q9UHP7 1-191)
T4 construct: In the Western blot the protein stood in cell extracts, in the IHC validation in fixed cells; also called CLEC2D; C1R-LLT1 transfectants
T4 sequence: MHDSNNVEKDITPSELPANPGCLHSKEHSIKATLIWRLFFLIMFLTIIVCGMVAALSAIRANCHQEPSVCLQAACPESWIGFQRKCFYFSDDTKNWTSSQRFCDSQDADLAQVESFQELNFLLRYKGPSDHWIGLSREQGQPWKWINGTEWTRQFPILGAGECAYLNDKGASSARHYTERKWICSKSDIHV


Tests used:
CLEC2A-Fc protein = target: T1, CLEC2A-Fc protein; assay: ELISA, coated Fc fusion protein
Experimental: Anti-LLT12F1A5 and anti-LLT14F were compared to mAb's 4C7 and MAB3480 with respect to binding to CLEC2D (LLT1) fusion proteins in the ELISA application. Wells were coated with Fc fusion proteins representing full-length CLEC2D or splice variant 2 and 4 hereof (CLEC2D-iso2 and -iso4, respectively). Full-length CLEC2D contains exons 1, 2, 3, 4a and 5, whereas isoforms 2 and 4 contain exons 1, 2, 3, 4a, 4b, 5 and exons 1, 2, 3, 5, respectively. Coated wells were incubated with anti-LLT12F1A5, anti-LLT14F, MAB3480 or 4C7 antibodies. Wells not coated with protein (PBS) or coated with CLEC2A-Fc protein were included as negative controls. Antibody binding was detected by HRP-conjugated anti-mouse Ig secondary antibody and chromogen. HRP-conjugated anti-human Ig antibody was included as a positive control that recognized the Fc portion of both fusion proteins.

[1] = target: T2, AICL, expressed on transfected 293T …; assay: flow cytometry on 293T cells transfected with AICL
LLT1-Fc fusion protein [2] = target: T3, LLT1-Fc fusion protein; assay: SPR (Biacore T100, 25 °C); LLT1-Fc immobilised on CM5 chip (500 RU), antibody 3.125 to 100 nM in solution
Experimental: Surface plasmon resonance measurements were performed on a Biacore T100 apparatus (Biacore) at 25° C. In all Biacore experiments, HBS buffer supplemented with 0.05% surfactant P20 served as running buffer and sensorgrams were analyzed with Biaevaluation software. Recombinant LLT1-Fc fusion protein (described by Aldemir et al in Journal of Immunology, 2005 vol. 176: 7791-7795) were immobilized covalently to carboxyl groups in the dextran layer on a Sensor Chip CM5 (Biacore). The sensor chip surface was activated with EDC/NHS(N-ethyl-N′-(3-dimethylaminopropyl) carbodiimidehydrochloride and N-hydroxysuccinimide, Biacore). Proteins diluted in coupling buffer (10 mM acetate, pH 4.5) were injected. Deactivation of the remaining activated groups was performed using 100 mM ethanolamine pH 8 (Biacore).
Anti-LLT12F1A5 was tested in a range of concentrations from 3.125 to 100 nM for binding to immobilized LLT1-Fc protein (500 RU).

[3] = target: T4, lectin-like transcript 1 (LLT1), …; assay: flow cytometry on C1R-LLT1 transfectants, anti-mouse IgG secondary antibody
Experimental: (§1) C1R-LLT1 transfectants and parental C1R cells were washed in PBS containing 1% FCS and incubated with anti-LLT14F or anti-LLT14F-hIgG4 antibody at concentrations 0.0003-10 μg/ml as indicated in FIG. 4 for 30 min at 4° C. followed by incubation with fluorochrome-conjugated anti-mouse or anti-human IgG secondary antibodies, respectively. Samples were washed three times in PBS containing 1% FCS and analysed by flow cytometry.

LLT1-Fc fusion protein [4] = target: T3, LLT1-Fc fusion protein; assay: blocking assay by flow cytometry: binding of LLT1-Fc multimers to CD161 on 293T-CD161 cells in the presence of the antibody
Experimental: A multimeric complex was generated by incubating the LLT1-Fc fusion protein with biotinylated protein A (Pierce) at a molar ratio of 1:1. Saturating amounts of purified hIgG were added to block the remaining free protein A sites. A multimer control was generated using protein A-biotin saturated with purified hIgG. These complexes were conjugated to streptavidin-allophycocyanin (BD Biosciences). […] Anti-LLT14F (4F) or control IgG1 (ctrl IgG1) was added at concentrations 0.01-200 μg/ml. For comparison, anti-LLT12F1 (2F1A5) and AF3480 were tested in parallel with 4F in this assay. Binding of LLT1-multimers was evaluated by flow cytometry.

[5] = target: T4, lectin-like transcript 1 (LLT1), …; assay: flow cytometry on C1R-LLT1 transfectants, anti-human IgG secondary antibody
Experimental: as §1

binding result (CLEC2A-Fc protein) | binding result [1] | Kd (LLT1-Fc fusion protein [2]) [nM] | EC50 (read off the curve) [3] [µg/mL] | IC50 (read off the curve) (LLT1-Fc fusion protein [4]) [µg/mL] | EC50 (read off the curve) [5] [µg/mL] | Binder
no binding | no binding | 1.24 |  |  |  | anti-LLT12F1A5 (antibody, mouse IgG1, V domains shown, also called anti-LLT2F1; anti-LLT2F1A5) VH: EVQLQQSGAELVRSGASVKLSCTASGFNIKDYYMHWVKQRPEQGLEWIGWIDPENGDTEYAPKFQGKATVTADTSSNTVYLQLSSLTSEDTAVYYCNGEIITTTAWFTYWGQGTLVTVSA VL: not shown
no binding | no binding |  | ~0.04 | ~6 |  | anti-LLT14F (antibody, mouse IgG1, V domains shown, also called anti-LLT14F68; anti-LLT1-4F68) VH: EVQLVESGGGLVQPGGSLKLSCAASGFTVSSYGMSWVRQIPDKRLELVATINSNGGRTFYPDSVKGRFTISRDNAQNTLYLQMSSLKSEDTAMYYCARDGGYWAHFDYWGQGTTLTVSS VL: DVLMTQTPLSLPVSLGDQASISCRSSQSIVHSNGNTYLEWYLQKPGQSPKLLIYKVSNRFSGVPDRFSGSGSGTDFTLKISRVEAEDLGVYYCFQGSHVPWTFGGGTKLEIKR
 |  |  |  |  | ~0.05 | anti-LLT14F-hIgG4 (antibody, V domains shown, Murine variable domains of anti-LLT14F on human kappa/IgG4 scaffold; also called chimeric mouse/human anti-LLT14F; ChimLLT14F; not shown: human IgG4 heavy chain constant region (CH) with hinge mutation S241P; human kappa light chain constant domain (CL)) VH: EVQLVESGGGLVQPGGSLKLSCAASGFTVSSYGMSWVRQIPDKRLELVATINSNGGRTFYPDSVKGRFTISRDNAQNTLYLQMSSLKSEDTAMYYCARDGGYWAHFDYWGQGTTLTVSS VL: DVLMTQTPLSLPVSLGDQASISCRSSQSIVHSNGNTYLEWYLQKPGQSPKLLIYKVSNRFSGVPDRFSGSGSGTDFTLKISRVEAEDLGVYYCFQGSHVPWTFGGGTKLEIKR
